Assay results published in PMC11883000, “Structure-function relationship of ASH1L and histone H3K36 and H3K4 methylation” (Nature Communications, 2025).

Target: Substitution of D2595 or D2584 with alanine (ASH1L PHD finger mutants)
Experiment: not stated; wild type and mutants of ASH1LPHD with H3K4me3 peptide (Fig. 3c, Supplementary Figs. 5 and 6); the legend names tryptophan fluorescence, MST or NMR, which for each mutant is marked only in the figure

Kd: 5 to 7 µM
Substance: histone H3K4me3 peptide (aa 1-12 of H3) (from UniProt P68431 2-13)
